Laboratory results from PMC2573919, “The Desensitization Gating of the MthK K^+ Channel Is Governed by Its Cytoplasmic Amino Terminus” (PLoS Biology, 2008).
Where no end group is shown, it is not given here.

Biological target: Isolated RCK domain (M107-A336) of MthK, preparation for NMR (from pQE70-MthK) (Methanobacterium thermoautotrophicum, UniProt O27564 107-336)
Assay: NMR titration; 700-MHz 1H NMR, 25 °C; isolated RCK titrated with synthetic peptide at [peptide]:[RCK] 0:1, 1:5, 1:2, 1:1 and 1:0; 20 mM Tris-HCl (pH 7.5), 150 mM KCl, 1 mM DTT; RCK concentrated to approximately 200 μM; disappearance of the peptide's His11 and Met1 peaks followed
Conditions: both partners purified

binding result: binds
B1: synthetic aa1–11 peptide (peptide)
peptide: MVLVIEIIRKH-NH2
notes: MthK K+ channel of Methanobacterium thermoautotrophicum, N-terminal residues 1-11; source: synthetic peptide (Celtek Peptides)
